Measured values reported in a protein production outcome set (Wang et al. 2014).

Experiment: label from the status in PepcDB records
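Note: failed if final PepcDB status was selected cloned or expressed and not failed if soluble or beyond.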

Sequence | protein production
MARKCEITGKKTMFGNNVPRKGLAKKKGGAGQHIGVKTKRTFKVNLINKKFFIPNLGRSVSIKVSANALRSISKIGLDAFLKKNCKKIENFLLEHHHHHH | failed
MSVASLPSFLCLSQESSRRASARRESPSSPRTWAGWIPVTGTGMRECVVALCLLLTLIFAAASPALAFNPDEVLKDPVLEQRARNLTSQLRCMVCQNQSIDDSNAELARDLRVLVRERLVQGDSDKAVIDYVVSRYGEFVLLKPRLSLRTLLLWGAPIGLTLAGIFAVFVFSRRRATQERPQKLSADEEERIRNLIEK | failed
LRESEARLKGIAGNVPGLVFRLERDPAEGDLEFPYISEGSEALVGYAPSEIQHPQMGLRNLVHPEDRADYHRVQDLALASDQDWSWQGRILTRQGEQRWADIKASARHLGNGQVVWDGVVWDITQGKRAELALAKSQEQLRELSAHLESVREEEKARIAREVHDELGQM | not failed
TIATSGKLNWGIRESFNNYTNGASKVEDGATLISTNNFEFKLEKATYDAAKERTEAQFRGKIVYLKYCDDMKTFTNCQLDLTIKDPKIVISNEENYVEAVVDSKQYPSGEWYKSNGPVKIANLYPGSATVDSKDNSTEWTNVVSALANPGGVKMFSEFYGENEGLAPLSFSYDG | failed
MGFLHKLWDETVAGPTPDNGLGKLRKHDSLSTVRSSPPSLSSDQVTRSIMVTKGNNNVRGLRKLKMDPDSPTCSSSNPGTPLTPGTPCYALGPFTAGKIPSSGEDDAASLTTYEWIVINALDR | failed
ETTMPASRSLVDKPVHRFEIIPWNGKKVGYLMYNEFKAGPTTDSQAYNDDLRRAFRDFQTGGVNEFVLDLRYNTGGSLDCAQLLCTMLAPADKMNQLLALLRYSDKRVEANQDLTFNPELIQSGANLNLSTVYVLTTNATRGAAEMVINCLNPYMKVVLIGTKTAGEYVATKPFVHPTDRFILNLVVCNVYNAEEKSDYATGFKPTYEYNEDSYLSTYLPFGNTNETLLNAALKIMSGITDK | failed
MQHESPIIRRKSTRIYVGDVPIGDGAPIAVQSMTNTRTTDVEATVAQIRALEKVGADIVRVSVPTMEAAEAFKLIKQQVSVPLVADIHFDYRIALKVAEYGVDCLRINPGNIGNEERIRSVVDCARDKNIPIRIGVNGGSLEKDLQMKYGEPTPEALVESAMRHVDHLDRLNFDQFKVSVKASDVFLAVDSYRLLAKKIDQPLHLGITEAGGARAGAVKSAVGLGMLLSEGIGDTLRISLAADPVEEIKVGFDILKSLRIRSRGINFIACPSCSRQEFDVIGTVNALEQRLEDIITPMDVSIIGCVVNGPGEAEVSHLGLAGSNKKSAFYEDGKRQKERFDNNDLVNQLEAKIRAKASMMDSENRIEIKVQD | failed
SRPATPPVTPPSREGHVADLDRFPQDLRVYAMKAGADRQLLPFTEQAAQDARWNRRFFAPWRMTRISVPVKDVAAPFGTDGRPRGYAENLLPWDVTRWGALASGAALDLYPSQAWKGIVVSNSALREVPTLRPMFTAPTRAGQGYPFDMFQRTAVWMGTPVFVGHATADRAWLYVETAFAAGWMPAADVARVDDAFMTRYESGSLAAILRDDTSLNGADGTHLATAHIGTVLPLSGASQVGRTVLVPVRAPEGHAVVVPVLLTSGEAAQKPVPLTPGNMAELGNRMMGQPYGWGGLYEDRDCSSTLRDLFTPFGLWLPRNSASQAKAGRYVDIAKLDADDKEARIVAEGVPFMTLLWLRGHITLYLGLHEGQAAMFHNMWGIRTHRGGVEGRYVLGRAVVTSTRPGLDVPGNDNADGLLGRMQGMSILPGGAQ | not failed
EDVKEFEREETQDKEESVESSLPLNAIEPCVICQGRPKNGCIVHGKTGHLMACFTCAKKLKKRNKPCPVCRQPIQMIVLTYFP | failed
MGGKMRLLPIRKISRQSKRLALFLTFCAGYVDAYTFIVRGNTLVAGQTGNVVFLSVELIKNNVSDVRDKVLTLLAFMMGVFLLTIYKEKLRIVKKP | failed
MRMEDEDYNTSISYGDEYPDYLDSIVVLEDLSPLEARVTRIFLVVVYSIVCFLGILGNGLVIIIATFKMKKTVNMVWFLNLAVADFLFNVFLPIHITYAAMDYHWVFGTAMCKISNFLLIHNMFTSVFLLTIISSDRCISVLLPVWSQNHRSVRLAYMACMVIWVLAFFLSSPSLVFRDTANLHGKISCFNNFSLSTPGSSSWPTHSQMDPVGYSRHMVVTVTRFLCGFLVPVLIITACYLTIVCKLQRNRLAKTKKPFKIIVTIIITFFLCWCPYHTLNLLELHHTAMPGSVFSLGLPLATALAIANSCMNPILYVFMGQDFKKFKVALFSRLVNALSEDTGHSSYPSHRSFTKMSSMNERTSMNERETGML | failed
MAELQMLLEEEIPGGRRALFDSYTNLERVADYCENNYIQSADKQRALEETKAYTTQSLASVAYLINTLANNVLQMLDIQASQLRRMESSINHISQTVDIHKEKVARREIGILTTNKNTSRTHKIIAPANLERPVRYIRKPIDYTILDDIGHGVKVSTQNMKMGGLPRTTPPTQKPPSPPMSGKGTLGRHSPYRTLEPVRPPVVPNDYVPSPTRNMAPSQQSPVRTASVNQRNRTYSSSGSSGGSHPSSRSSSRENSGSGSVGVPIAVPTPSPPSVFPGHPVQFYSMNRPASRHTPPTIGGSLPYRRPPSITSQTSLQNQMNGGPFYSQNPVSLAPPPPSILQVTPQLPLMGFVARVQENISDTPPPPPPVEEPVFDESPPPPPPPEDYEEEEAAVVEYSDPYAEEDPPWAPRSYLEKVVAIYDYTKDKEDELSFQEGAIIYVIKKNDDGWYEGVMNGVTGLFPGNYVESIMHYSE | not failed
MTDNETPAEDQVGDRVAGLLLAAGGGRRLGGRPKALLEHRGHPLVEHAVEVLRTAGCARVHVVLGARAADVRARAALDGCTLVDNPDWEQGMGSSLRAGLGSLAATGARAALVCLVDQPGIGAAATARVRARFRDETSLASAAYAGVRGHPVLLGAAHWAGVAATASGDRGARAYLREHEAEIALVECGDVARPYDIDTEADLVHLELEHHHHHH | not failed
MDIKRYCPVTDSELPADHVYFKFRSEIEAAEAYLGLAISEGIKVRETREILDIIDTVYNSLSDPESKLNDFQEKRLNFTEEDWYDIKEKANNGNRWSLYMFLARSAVDSAVYWSYRMKETEEFKEIVKEEMISKLLKAGYVILRESLGEVRL | not failed
MANPNEAYRHYMKKLSYETDIADLSIDIKKGYEGIIVVDVRDAEAYKECHIPTAISIPGNKINEDTTKRLSKEKVIITYCWGPACNGATKAAAKFAQLGFRVKELIGGIEYWRKENGEVEGTLGAKADLFWNMKKESLEHHHHHH | not failed
MTRYLRLSGLEPFVLTPDIPFVNVGERTNVTGSARFRKLITNRDYAAALEVARDQVQNGAQILDVNMDEGLIDSKAAMVEFLNLIASEPDIARVPLMIDSSKWEVIEAGLKCVQGKPVVNSISLKEGEESFRRQAGLCLAYGAAVVVMAFDEEGQADSFARKTTICARAYRILVEEVGFPPEDIIFDPNVFAVATGIEEHDNYGVDFIEAARWIRANLPHAHVSGGVSNLSFSFRGNEPVREAMHAVFLYHAIRAGMDMGIVNAGQLAVYDQIDPDLREACEDVVLNRKPKQGGTATERLLALAER | failed
MEKYQNLLVVIDPNQDDQPALRRAVYIVQRNGGRIKAFLPVYDLSYDMTTLLSPDERNAMRKGVINQKTAWIKQQARYYLEAGIQIDIKVIWHNRPYEAIIEEVITDKHDLLIKMAHQHDKLGSLIFTPLDWQLLRKCPAPVWMVKDKEWPEYGTIVVAANLSNEESYHDALNLKLIELTNDLSHRIQKDPDVHLLSAYPVAPINIAIELPDFDPNLYNNALRGQHLIAMKELRQKFSIPEEKTHVKEGLPEQVIPQVCEELNAGIVVLGILGRTGLSAAFLGNTAEQLIDHIKCDLLAIKPDGFTCPITVDSDNE | not failed
MTYDLTVIIPVYNTEKYLRRCLESIVNQDDIEQCSIKVICINDGSTDESRKIIEEFVEKYSYIEIFNKENGGLADVRNTGLQFINDSLYTVSLDSDDFWDKSFLTEFNKYKSSNYDLIFFDINLVDCDGNPVKELIVNPKFDKYNKKKDFMVVKHAAWSKICRTNLYDNINFPKGKLYEDLAVMPYLTSRAERIHYIQKPLINYVINTPGSIMNSSKSNIFDIYDSLIHLFNLFGNHFEKYRNELQYLAIEHLCVGHTYRLLNYPEATKQDFKDIVIFMEKYFGKHWDKNKYVKRGVQKVNINSSLSYVVPVFLKFLKYGGIIKLYDIKRVLLSKK | failed
MKAVRRQISRFSAHRWWSIVLKEFLQLRRDRVTFGMMIGIPIIQLLLFGFAINSDPRHMPTAVIVAEHSDFSRTFIAALDNTTYFKVVRTMPDEASGREALMRGDVQFVVSIPADFSRRLLHGDRPSILVEADATDPSATGQAIAALAQLPATVARIDLKGALAPLAGGQPAFDVNVHRLYNPEGITQYNIVPGLMGTILTMTMVMMTGLAMTRERERGTMENLLATPVQPLEVISGKIIPYIFIGLIQATIILLAAHFVFGVPFVGSPVAVYLAALLFIAANLTVGITLSSLAANQLQALQLTFFYFLPNILLSGFMFPFAGMPTWAQWIGNVLPMTYFNRMIRSIMLKGSGWIELWPNVWPVALFTVIVLTIAVRFYKRTLD | failed
MKELSLFLQNRSVRRVGVFILIAFVLYLLRSQMNIILLTFIFSYLITRLENFILRRISIYRQIIVLLLYVLIAAVIIFVFVKYIPVLADQINQLVKFGNTFLTTDSNNDFINYIVSLANQFDIMKYTEQGVSMILTYLTNVGTVLMNVFIALMLSLFFSLGKEHLVSFTNQFSTSKIGFIYEEVKFFGSKFVATFGKVIEAQFIIALVNAILTTIALWILGFPQLMTLSIMVFLLGLIPVAGVIISLVPLTIIGYSIGGVEYIFYILVVVIIIHALESYVLNPKLMSAKTNLPVFYTFIILIFGEHFFGIWGLIVGIPVVMFFLDVLGVTNQEEIEQPKDTISHT | failed
MSFSADALEGGLSSLKLAADKYRSILNDEKTGNIRWRYGGPPIFDTVNKLFEEERTHVQWRYDNPPDFNSVNQLFEEGQTKVWPEGSLEETVQNAIKSWEMEFSHKIRLQDFKTINPEKFKLFVNGREGLSAEETLRLGSYNALLKNSLPEEFQYYKPEEESFESSHDAFRSALPRGFAWEILSVYSGPPVIAFKFRHWGYFEGTFKGHAPTGEMVQFLGLGVLKVDESLRAEEIEIYYDPGELFGGLLKGPPISETKTTDSGDNTAEKQSCPFTH | failed
MTLLEAISNAVANQDKVDSQSDYPIPLSHDGIFANLKPKLENPNLGTLVNPISGWGISESDVEVIDLGKKFSSKLKRKLKDTNGFVKDEFVKMLKQFLEKIGEKVGISEAESEMVLGDQAGSEIQILVEKNGFLMGRDVSGLVLKGCISLEMWELVEILISNSLVDHSSYSYLVSNLVEKQRSDLLCVVIKEASDLGATELLSILKYFLCPSKEAISTMAKVREEWESQAMLAIEKVSNTELSKKSKVAEEASILLMVAHDGFSTSELCLHYLLASRNVDEVMFASAVSKLNGNEMGSFIRYLSKWMKKYEMFPQAGPCPKAASKLGLKLCNWVPELTDITKCLGLLIDENFSTLVLYSDLHEELKSIARVADGLASESKLSCFVANVVESLKLGAARN | failed
